Measured values as given in article PMC11112747, “Cyanovirin-N Binding to N-Acetyl-D-glucosamine Requires Carbohydrate-Binding Sites on Two Different Protomers” (Biochemistry, 2024).

Target: chemically synthesized dimannosylated peptide (DM), 12mer peptide from hemagglutinin (HA) with diman

Substance “CVN2L0, a tandem-linked dimeric CVN2 with zero-linker length (tandem repeat of two cyanovirin-N molecules)” has a Kd of 3.94 µM.
